Residue numbers refer to the chain shown, from its start.
B1: ADI-41528 (antibody, V domains shown)
VH: EVQLVESGGGVVQPGRSLRLSCAASGFTFSSYAMHWVRQAPGKGLEWVAVISFDGSSDYYADSVKGRFTISRDSSKNTLYLRMNSLRAEDTAVYYCARRAVEYSIYNNDAFDVWGQGTTVTVSS
VL: SYELTQPPSVSVSPGQTASITCSGDKLGNKFTFWYQQKSGQSPVLVIYQETKRPSGIPERFSGSNSGNTATLTISGTQSMDEADYYCQAWDSSTAFFGGGTKLTVL
notes: also called Ab 800; Antibody Number 800
B2: ADI-41533 (antibody, V domains shown)
VH: QVQLVESGGGVVQPGRSLRLSCAASGFTFSSYAMHWVRQAPGKGLEWLAVISFDGSSEFYGDSVRGRFTISRDNSKNTLYLRVNSLRAEDTALYYCARRSLKYSMYNNDAFDVWGQGTTVTVSS
VL: B1 VL with S1Q, Y2P, E3V, T51S, K52Q, S75R, T77A, S79A
B3: ADI-41534 (antibody, V domains shown)
VH: QVQLVQSGGGVVQPGRSLRLSCAASGFTFSNYAMHWVRQAPGKGLEWVTLISYDGSAQDYADSVKGRITISRDNSKNTLYLQMSSLRPEDTAVYYCARYYCTNDVCSSSALDIWGQGTTVTVSS
VL: B1 VL with T5I, F33C, S39P, E50D, T51S, S79A, A95V, F96V, G100R
notes: also called Ab 806; Antibody Number 806
B4: ADI-41502 (antibody, V domains shown)
VH: QVQLVQSGAEVKKPGSSVKVSCKASGGPFSSDAMSWVRQAPGQGLEWMGGIIPILGSATYAQKFKGRVTIAADESTSTSYMELSGLKYEDTAVYYCARPFYDPLTGYFDTFNVWGQGTTVTVSS
VL: QSVLTQPRSVPGSPGQSVTISCTGTSGDVGGYNYVSWYQQHPGKAPKLVIYDVTKRPSGVPDRFSGSKSGNRASLTISGLQAEDEADYYCCSYAGSQTGYVFGTGTKVTVL
notes: also called Ab 781; Antibody Number 781
B5: ADI-41529 (antibody, V domains shown)
VH: EVQLVQSGAEVRRPGSSVKVSCKASGGTLDTDSISWVRQVPGQGLVWVGGVIPILGSVVYARKFQGRVTITADGSTSTAYMELRSLRSEDTAMYYCASQFYDFRRGYFDAFDIWGQGTTVTVSS
VL: ETTLTQSPGILSLSPGERATLSCRATQTVISNYINWYQQKPGQAPRLLIYGASSRATGIPDRFSGSGSGTDFTLTISRLEPEDFAVYYCQRYDSSPPGFTFGPGTKVDIK
B6: ADI-41508 (antibody, V domains shown)
VH: QVQLVQSGAEVRKPGASVKVSCKASGYGFRSYDLTWVRQAPGKGLEWVGWISAYSGGTNYAQTLQGRVTMTTDTSTSTAYMELRSLGPDDTAVYYCARAGLYGSGSPDGFDSWGQGTLVTVSS
VL: SYELTQPPSVSVSPGQTASITCSGDKLGDKYASWYQQRPGQSPVLVISQDTKRPSGIPERFSGSTSGNTAILTISGTQAMDEADYYCLAWDSSTAWVFGGGTKLTVL
notes: also called Ab 786; Antibody Number 786
B7: ADI-41527 (antibody, V domains shown)
VH: EVQLLESGGGLVQPGGSLRLSCAASGFTFTSYWMSWVRQAPGQGLEWVATIKQDGSEKYYVDSVKGRFTISRDNAKNSLYLQMNSLGAEDTAVYYCARDMYCSTTTCYFFETYYYNGMDVWGQGTTVTVSS
VL: DIRLTQSPSSVSASVGDRVTITCRASQVTSTWLAWYQQNPGKAPKLLIYAASRLQSGVPSRFSGSGSGTEFTLTISSLQPEDFATYYCQQANSFPLTFGGGTKVEIK
notes: also called Ab 799; Antibody Number 799
B8: ADI-41504 (antibody, V domains shown)
VH: EVQLLESGPGLLKTSETLSLTCTVSDGSISGYYWTWIRQPPGKGLECIGYISYSGSTNYSPSLKSRVTISVDTSKNQFSLKLSSVTAADTAVYYCAKIGGYCNPTKCYGWFDPWGQGTLVTVSS
VL: QPVLTQPPSVSGAPGQRVTISCTGSSSNIGAGYDVHWYQQLPGTAPKLLIFGNTNRPSGVPDRFSGSKSGTSASLAITGLQAEDEAAYYCQSYDSSLFYVVLGGGTKLTVL
notes: also called Ab 783; Antibody Number 783
B9: ADI-41526 (antibody, V domains shown)
VH: QVQLVQSGAEVKKPGASVKVSCEASGYTFTDYYMHWVRQAPGQGLEWMGWINPNSGVTKIAQNFQGRVTMTRDTSITTAYMDLSRLRSDDTAVYYCARVVDGDYDNWFDFWGQGTLVTVSS
VL: SYVLTQPPSASGTPGQRVTISCSGSTSNIGTNTVNWYQQPPGMAPKLLIYANNQRPSGVPDRFSGSKSGTSASLAISGLQSEDEADYHCAVWDDSLPGWVFGGGTKLTVL
B10: ADI-41532 (antibody, V domains shown)
VH: QVQLVQSGAEVKKPGESLKISCKGSGYSFTSSWIGWVRQMPGKGLEWMGIIYPGDSDTRYSPSIQGRVTISADKSITTAYLQWSSLKASDTATYYCAKFGGYADAYFYHGMDVWGQGTTVTVSS
VL: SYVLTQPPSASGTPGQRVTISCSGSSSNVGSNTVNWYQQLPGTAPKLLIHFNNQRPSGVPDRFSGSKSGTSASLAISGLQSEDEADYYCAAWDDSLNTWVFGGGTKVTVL
B11: ADI-41499 (antibody, V domains shown)
VH: EVQLVESGGVVVQPGGSLRLSCAASGFSFDDYTMYWVRQAPEKGLEWISLISWNGGVTYYPDSVKGRFTVSRDNNKNSLYLQMDSLRPEDSAFYYCAKESLESSGHFLDYWGQGTLVTVSS
VL: QPVLTQSRSVSGSPGQSVTISCIGTNSDVGGYHYVSWFQHHPGKAPKLMIYDVSRRPSGVPARFSGSKSGNTASLSISGLRAEDEADYYCCSFAGTYTPYVFGTGTKLTVL
B12: ADI-41503 (antibody, V domains shown)
VH: EVQLLESGGGLVQPGGSLRLSCAASGFTFSDFPLSWVRQAPGKGLVWVSAISSSGGDTYYADSVKGRFTISRDSSKNALYLQMNSLRAEDTAVYYCAKGQELLRPYYYGMDVWGQGTTVTVSS
VL: QSALIQPASVSGSPGQSITISCTGTSSDVGGYNFVSWYQQHPGKAPKLMIFEVSNRPSGVSHRFSGSKSGNTASLTISGLQAEDEADYYCSSCTSRFTYVFGTGTKLTVL
B13: ADI-41531 (antibody, V domains shown)
VH: EVQLLESGGDLVQPGGSLRLSCAASGFTFFSYALNWVRRTPGKGLEWVSGISGSGGSTYYADSVKGRFTISRDNSKSTLYLQMNSLKVDDTAVYFCAKDFQHDYGDPYRSYYFDHWGQGTLVTVSS
VL: DIQLTQSPSSLAASVGDRVTITCQASRDIRKSLNWYQVKPGKAPKLLISDASYLETGVPPRFSGSGFGTHFTFTISSLQPEDIATYYCQQYDNLPPPTFGGGTKVDIK
notes: also called Ab 803; Antibody Number 803
B14: ADI-41530 (antibody, V domains shown)
VH: QVQLVESGAEVKKPGASVKVSCRASGYTFSAYDINWVRQAPGQGLEWVGWMNPNSGNTGYALRFQGRVTMTRDTSINTAYMELSSLRSDDTAVYYCAAQLWYPNWGQGTLVTVSS
VL: SYELTQPPSVSVGLGQTASITCGGNNIGSKSVHWYQQKPGQAPTLVIYRDTNRPSGIPERFSGSNSENTATLTISRAQAGDEADFYCQVSDNYSWVFGGGTKLTVL
notes: also called Ab 802; Antibody Number 802

Each binder was assayed against RSV F on RSV-A2 virus (Respiratory Syncytial Virus (RSV-A2), UniProt P03420 26-574) (assay: cell-based or functional assay).

B1 and B2 cannot be ordered by “Neutralization IC50 (RSV subtype A)” value: over 25 µg/mL for the first, over 25 µg/mL for the second.

B3 and B4 cannot be ordered by “Neutralization IC50 (RSV subtype A)” value: over 25 µg/mL for the first, over 25 µg/mL for the second.

Going from B5 to B6, the “Neutralization IC50 (RSV subtype A)” value falls from over 25 µg/mL to 0.1 µg/mL.

B7 and B8 cannot be ordered by “Neutralization IC50 (RSV subtype A)” value: over 25 µg/mL for the first, over 25 µg/mL for the second.

B9 and B10 cannot be ordered by “Neutralization IC50 (RSV subtype A)” value: over 25 µg/mL for the first, over 25 µg/mL for the second.

B11 and B12 cannot be ordered by “Neutralization IC50 (RSV subtype A)” value: over 25 µg/mL for the first, over 25 µg/mL for the second.

B13 and B14 cannot be ordered by “Neutralization IC50 (RSV subtype A)” value: over 25 µg/mL for the first, over 25 µg/mL for the second.

Each binder was assayed against RSV postfusion F (postF), F ΔFP (Respiratory Syncytial Virus, UniProt P03420 26-513) (assay: BLI, IgG on anti-human IgG sensor, 100 nM antigen, 1:1 fit).

B1 and B2 are within 1.5-fold of each other in Kd: 0.348 nM for the first, 0.423 nM for the second.

Compared with B3, B4 is 1.5-fold lower in Kd: 0.472 nM for the first, 0.308 nM for the second. The second binds more tightly here.

Compared with B5, B6 is 1.6-fold higher in Kd: 0.351 nM for the first, 0.555 nM for the second. The first binds more tightly here.

Going from B7 to B8, the Kd rises from 0.337 nM to 0.508 nM (1.5-fold). The first binds more tightly here.

B9 and B10 are within 1.5-fold of each other in Kd: 0.336 nM for the first, 0.392 nM for the second.

Compared with B11, B12 is 1.7-fold higher in Kd: 0.297 nM for the first, 0.493 nM for the second.

B13 and B14 are within 1.5-fold of each other in Kd: 0.377 nM for the first, 0.355 nM for the second.

What follows are binders tested against RSV prefusion F (preF), DS-Cav1 (Respiratory Syncytial Virus, UniProt P03420 26-513) in the same assay as above.

Going from B1 to B2, the Kd falls from 2.28 nM to 1.47 nM (1.6-fold). The second binds more tightly here.

First: B3
Second: B4
The Kd of the first is 2.5-fold higher: 3.31 nM for the first, 1.34 nM for the second. The second binds more tightly here.

First: B5
Second: B6
The Kd of the first is 4-fold lower: 1.03 nM for the first, 4.15 nM for the second.

Going from B7 to B8, the Kd rises from 0.712 nM to 2.8 nM (3.9-fold).

First: B9
Second: B10
The Kd of the first is 6.4-fold lower: 0.301 nM for the first, 1.92 nM for the second. The first binds more tightly here.

Compared with B11, B12 is 1.6-fold higher in Kd: 1.99 nM for the first, 3.14 nM for the second.

B13 and B14 are within 1.5-fold of each other in Kd: 2.08 nM for the first, 1.91 nM for the second.

Reference: US20260258115A1 (MAPP BIOPHARMACEUTICAL, published 2026)
